For one substance, relative % of RP-bound chaperone in wild type (not4Δ set as 100%) results are on record in paper PMC9214829.

The assay deals with proteasome regulatory particle (S. cerevisiae) (UniProt P33299). Put plainly: co-IP.
Chain of UniProt P33299 (P33299 whole entry, looked up): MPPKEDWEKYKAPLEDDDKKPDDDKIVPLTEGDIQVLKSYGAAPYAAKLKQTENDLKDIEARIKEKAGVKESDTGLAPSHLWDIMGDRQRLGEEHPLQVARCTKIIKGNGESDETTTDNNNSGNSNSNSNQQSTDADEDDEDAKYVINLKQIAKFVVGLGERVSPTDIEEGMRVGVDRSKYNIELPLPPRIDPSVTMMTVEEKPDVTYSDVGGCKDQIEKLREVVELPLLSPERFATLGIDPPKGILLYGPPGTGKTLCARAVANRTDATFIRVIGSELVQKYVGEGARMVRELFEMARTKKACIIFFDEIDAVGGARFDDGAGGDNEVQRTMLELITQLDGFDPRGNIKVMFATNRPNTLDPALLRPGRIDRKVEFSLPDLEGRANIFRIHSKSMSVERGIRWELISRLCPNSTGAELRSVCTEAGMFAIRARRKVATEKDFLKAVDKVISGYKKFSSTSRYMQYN

The substance “Rpn14 (from UniProt P53196 1-417) (natural protein)” returned a relative % of RP-bound chaperone in wild type (not4Δ set as 100%) of 20%.
